Data published in patent publication US20230167426.

Molecular target: T1, AcrE2 (type I-E anti-CRISPR from Pseudomonas phage JBD88a)
T1 chain: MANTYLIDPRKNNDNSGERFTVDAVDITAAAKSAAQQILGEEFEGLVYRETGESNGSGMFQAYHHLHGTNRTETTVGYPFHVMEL

B1: 6×His-tagged NmeCas9 (Neisseria meningitidis Cas9) (protein)
chain: MAAFKPNSINYILGLDIGIASVGWAMVEIDEEENPIRLIDLGVRVFERAEVPKTGDSLAMARRLARSVRRLTRRRAHRLLRTRRLLKREGVLQAANFDENGLIKSLPNTPWQLRAAALDRKLTPLEWSAVLLHLIKHRGYLSQRKNEGETADKELGALLKGVAGNAHALQTGDFRTPAELALNKFEKESGHIRNQRSDYSHTFSRKDLQAELILLFEKQKEFGNPHVSGGLKEGIETLLMTQRPALSGDAVQKMLGHCTFEPAEPKAAKNTYTAERFIWLTKLNNLRILEQGSERPLTDTERATLMDEPYRKSKLTYAQARKLLGLEDTAFFKGLRYGKDNAEASTLMEMKAYHAISRALEKEGLKDKKSPLNLSPELQDEIGTAFSLFKTDEDITGRLKDRIQPEILEALLKHISFDKFVQISLKALRRIVPLMEQGKRYDEACAEIYGDHYGKKNTEEKIYLPPIPADEIRNPVVLRALSQARKVINGVVRRYGSPARIHIETAREVGKSFKDRKEIEKRQEENRKDREKAAAKFREYFPNFVGEPKSKDILKLRLYEQQHGKCLYSGKEINLGRLNEKGYVEIDHALPFSRTWDDSFNNKVLVLGSENQNKGNQTPYEYFNGKDNSREWQEFKARVETSRFPRSKKQRILLQKFDEDGFKERNLNDTRYVNRFLCQFVADRMRLTGKGKKRVFASNGQITNLLRGFWGLRKVRAENDRHHALDAVVVACSTVAMQQKITRFVRYKEMNAFDGKTIDKETGEVLHQKTHFPQPWEFFAQEVMIRVFGKPDGKPEFEEADTLEKLRTLLAEKLSSRPEAVHEYVTPLFVSRAPNRKMSGQGHMETVKSAKRLDEGVSVLRVPLTQLKLKDLEKMVNREREPKLYEALKARLEAHKDDPAKAFAEPFYKYDKAGNRTQQVKAVRVEQVQKTGVWVRNHNGIADNATMVRVDVFEKGDKYYLVPIYSWQVAKGILPDRAVVQGKDEEDWQLIDDSFNFKFSLHPNDLVEVITKKARMFGYFASCHRGTGNINIRIHDLDHKIGKNGILEGIGVKTALSFQKYQIDELGKEIRPCRLKKRPPVR
For B1, the “in vitro DNA cleavage by NmeCas9” value was “Cleavage was unaffected by prior incubation of NmeCas9 with increasing amounts of the control, type I-specific anti-CRISPR, AcrE2”.
